{"source": "paper PMC11305399", "about": "“FLT3/CD99 Bispecific Antibody–Based Nanoparticles for Acute Myeloid Leukemia” (Cancer Research Communications, 2024)", "binders": {"B1": {"name": "CD99-A192 (α-CD99 scFv fused to the amino-terminus of the elastin-like polypeptide A192) (scFv, V domains shown)", "VH": "not shown", "VL": "SSELTQDPAVSVALGQTVRITCQGDSLRSYYASWYQQKPGQAPVLVIYGKNNRPSGIPDRFSGSSSGNTASLTITGAQAEDEADYYCNSSFPRTSSVVFGGGTKLTVL"}}, "target": "Cluster of differentiation 99 (CD99) (Homo sapiens (Human)., UniProt P14209)", "sequence (P14209 23-185)": "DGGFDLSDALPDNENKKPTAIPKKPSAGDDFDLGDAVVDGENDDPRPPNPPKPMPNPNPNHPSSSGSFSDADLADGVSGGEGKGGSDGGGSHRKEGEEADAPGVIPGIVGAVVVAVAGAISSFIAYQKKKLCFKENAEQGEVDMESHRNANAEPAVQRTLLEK", "assay": "cell-based or functional assay", "data": [{"binder": "B1", "values": [{"measurement": "IC50 of cell viability (CCK-8) of MV4-11 cells, 72 hours", "result": 0.4, "unit": "µmol/L"}, {"measurement": "phospho-SRC in MV4-11 cells at 24 hours (western blot), 25 μmol/L CD99-A192 vs. A192", "result": 11, "unit": "fold"}]}]}
